In one test the target is mouse KOR (Mus musculus, UniProt P33534). As to the kind of experiment: cell-based. The conditions noted are these: HEK293, read-out: Efficacy cAMP Emax ± SD.
Test [1] addresses T1, mouse κ-opioid receptor (mouse, UniProt P33534 1-380).
T1 construct: also called KOR; mouse KOR
As to the kind of experiment: radioligand binding; displacement of [3H]-diprenorphine (1 nM) from HEK293 cell membranes stably expressing mouse KOR (6.3–7.6 µg/assay) by peptides (0.1 nM–30 µM); 50 mM Tris-HCl pH 7.4, 10 mM MgCl2, 0.1% BSA; 1.5 h at 37°C; filtration; Ki from IC50 by Cheng and Prusoff. The conditions noted are these: one partner purified.

A further test has as its target mouse KOR-EGFP (mouse, UniProt P33534 1-380). As to the kind of experiment: cell-based or functional assay.
Test [2] has as its target T1, mouse κ-opioid receptor. As to the kind of experiment: cell-based or functional assay.

The source of these data is paper PMC8569185 (Frontiers in Pharmacology, 2021).

Sequence of mouse KOR (P33534 whole entry): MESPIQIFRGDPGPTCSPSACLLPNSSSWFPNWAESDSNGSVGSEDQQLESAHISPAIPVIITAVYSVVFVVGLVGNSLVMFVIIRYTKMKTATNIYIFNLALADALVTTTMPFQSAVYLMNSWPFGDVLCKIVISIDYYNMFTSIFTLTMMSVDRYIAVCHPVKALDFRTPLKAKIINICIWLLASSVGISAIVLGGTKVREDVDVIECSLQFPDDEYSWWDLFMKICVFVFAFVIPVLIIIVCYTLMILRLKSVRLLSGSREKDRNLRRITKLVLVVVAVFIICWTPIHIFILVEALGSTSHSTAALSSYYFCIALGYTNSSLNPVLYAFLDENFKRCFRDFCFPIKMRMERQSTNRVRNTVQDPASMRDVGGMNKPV
Sequence of mouse KOR-EGFP (P33534 whole entry): as above
T1 sequence (P33534 whole entry): as above

Consider `CSCC[C@H](NC(=O)[C@H](Cc1ccccc1)NC(=O)CNC(=O)CNC(=O)[C@@H](N)Cc1ccc(O)cc1)C(=O)N[C@@H](CCCNC(=N)N)C(=O)N[C@@H](CCCNC(=N)N)C(=O)N[C@H](C(=O)O)C(C)C` [blenniorphin 1–8], for which the Emax at 10 µM on mouse KOR is 82.4 ± 9.8%.
On to H-YGGFMRRVGRPEW-OH [blenniorphin 1–13], for which the maximal response (Emax) at 10 µM at mouse KOR came to 98.5 ± 9.1%.
The same measure, in the same setting: as for “H-YGGFMRRVGRPEWLVDS-OH [blenniorphin 1–17]”, the figure is 97.5 ± 11%.

B1: blenniorphin 1–13 (peptide)
peptide: YGGFMRRVGRPEW
notes: numbers count on: the dyn A 1–17-like peptide, not the precursor; Free N-terminus and free C-terminal carboxyl as printed (NH2-...-COOH); also called blenniorphin-13; source: synthetic peptide (Boc-based SPPS, RP-HPLC purified)
Molecule B1 showed a Ki in the test with mouse κ-opioid receptor [1] of 0.116 µM. In addition, the “extent of β-arrestin-2-Nluc recruitment to KOR-EGFP (BRET) at 10 µM peptide, relative to 10 µM dyn A 1–13 (100%)” value (from here on “extent … relative to 10 µM dyn A 1–13 (100%)”) in the test with mouse KOR-EGFP was about 30 % lower than dyn A 1–13. In the test with mouse κ-opioid receptor [2], the “EC50 of inhibition of forskolin-stimulated cAMP accumulation (HTRF cAMP-Gi kit), HEK293 cells stably expressing mouse KOR” value amounted to 0.005 µM and the “Emax of cAMP inhibition, normalised to 10 µM dyn A 1–13 (100%), HEK293 cells stably expressing mouse KOR” value was found to be 98.5%.

B2: blenniorphin 1–8 (peptide)
peptide: YGGFMRRV
notes: numbers count on: the dyn A 1–17-like peptide, not the precursor; Free N-terminus and free C-terminal carboxyl as printed (NH2-...-COOH); source: synthetic peptide (Boc-based SPPS, RP-HPLC purified)
Turning to B2, in the test with mouse κ-opioid receptor [1], the affinity, expressed as Ki, was 0.0033 µM. In addition, the “extent … relative to 10 µM dyn A 1–13 (100%)” value in the test with mouse KOR-EGFP was about 30 % lower than dyn A 1–13. Also, in the test with mouse κ-opioid receptor [2], the “EC50 of inhibition of forskolin-stimulated cAMP accumulation (HTRF cAMP-Gi kit), HEK293 cells stably expressing mouse KOR” value worked out at 0.0036 µM and the “Emax of cAMP inhibition, normalised to 10 µM dyn A 1–13 (100%), HEK293 cells stably expressing mouse KOR” value was determined as 82.4%.

B3: blenniorphin 1–17 (peptide)
peptide: YGGFMRRVGRPEWLVDS
notes: numbers count on: the dyn A 1–17-like peptide, not the precursor; Free N-terminus and free C-terminal carboxyl as printed (NH2-...-COOH); also called blenniorphin-17; source: synthetic peptide (Fmoc-based SPPS, RP-HPLC purified)
In the test with mouse κ-opioid receptor [1], B3 came in with a Ki of 0.0858 µM. In addition, the “extent … relative to 10 µM dyn A 1–13 (100%)” value in the test with mouse KOR-EGFP was about 30 % lower than dyn A 1–13. Also, in the test with mouse κ-opioid receptor [2], the “EC50 of inhibition of forskolin-stimulated cAMP accumulation (HTRF cAMP-Gi kit), HEK293 cells stably expressing mouse KOR” value stood at 0.0152 µM and the “Emax of cAMP inhibition, normalised to 10 µM dyn A 1–13 (100%), HEK293 cells stably expressing mouse KOR” value turned out to be 97.5%.
